From publication PMC7921663

Experiments:
Conditions in all cases: FA: 50 mM NaCl, 50 mM Tris-HCl pH 8.0, 5 mM DTT, 5 mM MgCl2, room temp, 30 nM FAM substrate, EMSA: 10 mM NaCl, 0.2 mM EDTA, 5 mM b-mercaptoethanol, 0.1% NP-40 …
[1] = test system: PARP2 (mouse); assay: fluorescence anisotropy
[2] = test system: PARP1 (human); assay: fluorescence anisotropy
[3] = test system: PARP2 (mouse); assay: EMSA
[4] = test system: PARP1 (human); assay: EMSA
[5] = single-nt gap with 5'-dRP at the U of primer S1 (UDG + APE1), midward-oriented
[6] = AP site at the U of primer S1 (UDG-generated), midward-oriented
[7] = AP site at the U of primer S1 (UDG-generated)
[8] = single-nt gap with 5'-dRP at the U of primer S3 (UDG + APE1), outward-oriented
[9] = AP site at the U of primer S3 (UDG-generated), outward-oriented
[10] = AP site at the U of primer S3 (UDG-generated)
[11] = single-nt gap with 5'-dRP at the U of primer S3 (UDG + APE1)
[12] = single-nt gap with 5'-dRP at the U of primer S1 (UDG + APE1)

gap mid-NCP
Kd [1, 5]: 128 nM | Kd [2, 5]: 14 nM

native out-NCP
Kd [1]: 156 nM | Kd [2]: 14 nM | Kd [3]: 192 nM | Kd [4]: 65 nM

native out-DNA
Kd [1]: 839 nM | Kd [2]: 14 nM

AP mid-NCP
Kd [1, 6]: 162 nM | Kd [2, 6]: 12 nM

AP mid-DNA
Kd [1, 7]: 690 nM | Kd [2, 7]: 23 nM

native mid-NCP
Kd [1]: 151 nM | Kd [2]: 11 nM

gap out-NCP
Kd [1, 8]: 14 nM | Kd [2, 8]: 10 nM | Kd [3, 8]: 57 nM | Kd [4, 8]: 38 nM

AP out-NCP
Kd [1, 9]: 160 nM | Kd [2, 9]: 7 nM | Kd [3, 9]: 130 nM | Kd [4, 9]: 61 nM

AP out-DNA
Kd [1, 10]: 811 nM | Kd [2, 10]: 23 nM

gap out-DNA
Kd [1, 11]: 58 nM | Kd [2, 11]: 29 nM

gap mid-DNA
Kd [1, 12]: 145 nM | Kd [2, 12]: 25 nM

native mid-DNA
Kd [1]: 608 nM | Kd [2]: 14 nM
